Source: patent publication US20100062011A1

Key:
[1] = molecular target: Peptide having the amino acid sequence of the 298th to 312th of Gag protein derived from HIV-1 (HIV-1); test: ELISA, serial 2-fold serum dilutions on coated Gag peptide; negative control serum
[2] = molecular target: Amyloid β-peptide consisting of 42 amino acid residues (human); test: ELISA, serial 2-fold serum dilutions on coated Aβ (SEQ ID NO:2); negative control serum
[3] = molecular target: DTL, T-cell epitope peptide derived from diphtheria toxoid; test: ELISA, serum dilutions on coated DTL peptide; control serum
[4] = molecular target: TetT3L, T-cell epitope peptide derived from tetanus toxoid

Substance | antibody titer [1] | antibody titer [2] | antibody titer [3] | antibody titer [4]
Antiserum from BALB/c mice not vaccinated (negative control, Experiment 1) (antibody) | 5.7 | 9.2 | – | –
Serum of BALB/c mice given neither peptide nor binary mixed vaccine (Experiment 2) (antibody) | – | – | 3 | 3
